Assay results published in publication PMC2777442 (Nucleic Acids Research, 2009).
Where two headings read alike, the source gives them in different places.

Experiments:
AUC = biological target: the molecule itself; assay: AUC
[1] = biological target: T1, TFAM (mature, MTS removed) (Homo sapiens, UniProt Q00059 50-246); assay: fluorescence anisotropy
T1 sequence: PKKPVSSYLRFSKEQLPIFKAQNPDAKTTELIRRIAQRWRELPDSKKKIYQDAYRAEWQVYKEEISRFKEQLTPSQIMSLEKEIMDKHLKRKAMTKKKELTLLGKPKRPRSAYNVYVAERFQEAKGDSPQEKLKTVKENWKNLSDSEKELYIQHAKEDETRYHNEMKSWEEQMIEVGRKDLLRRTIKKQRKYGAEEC

[2] = biological target: T1, TFAM (mature, MTS removed); assay: fluorescence anisotropy; remark: listed apart in the source

B1: Human mitochondrial transcription factor A (TFAM), residues 50-246 (natural protein, UniProt Q00059-1 50-246, looked up)
chain: PKKPVSSYLRFSKEQLPIFKAQNPDAKTTELIRRIAQRWRELPDSKKKIYQDAYRAEWQVYKEEISRFKEQLTPSQIMSLEKEIMDKHLKRKAMTKKKELTLLGKPKRPRSAYNVYVAERFQEAKGDSPQEKLKTVKENWKNLSDSEKELYIQHAKEDETRYHNEMKSWEEQMIEVGRKDLLRRTIKKQRKYGAEEC
stoichiometry N (AUC): 2

B2: Bulged-DNA-S (dsDNA)
DNA 1: CGATATTAAGAGCC
DNA 2: GGCTCAATATCG
apparent K (half saturation) [1]: 164 ± 17 nM

B3: Normal-DNA-S (dsDNA)
DNA 1: CGATATTGAGCC
DNA 2: GGCTCAATATCG
apparent K (half saturation) [2]: 413 ± 59 nM
